The values that follow are results of earlier work, collected in paper PMC10866363.

Broadly, the Kd is the free concentration of one partner at which half of the binding sites on the other are occupied at equilibrium, for simple one-to-one binding.

The data set has as its target Trigger factor (Escherichia coli) (UniProt P0A850).

Chain of Trigger factor (P0A850 whole entry): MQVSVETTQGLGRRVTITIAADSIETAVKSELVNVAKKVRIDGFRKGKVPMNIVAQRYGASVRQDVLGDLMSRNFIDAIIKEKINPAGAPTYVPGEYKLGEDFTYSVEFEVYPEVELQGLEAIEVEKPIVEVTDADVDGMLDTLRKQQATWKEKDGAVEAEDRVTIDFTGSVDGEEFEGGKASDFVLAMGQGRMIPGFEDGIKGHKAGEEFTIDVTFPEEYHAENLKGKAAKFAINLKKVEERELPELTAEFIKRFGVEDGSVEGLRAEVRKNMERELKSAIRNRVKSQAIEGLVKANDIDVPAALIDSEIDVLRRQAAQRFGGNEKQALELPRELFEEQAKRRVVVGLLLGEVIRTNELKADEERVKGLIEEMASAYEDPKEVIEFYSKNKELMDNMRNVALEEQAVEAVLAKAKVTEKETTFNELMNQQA

Consider Trigger factor (from UniProt P0A850), for which the Kd was 2 µM.
